Results: publication PMC10716038, “Talin and kindlin use integrin tail allostery and direct binding to activate integrins” (Nature Structural & Molecular Biology, 2023)
No end group written: not given here.

T1: talin-1 head domain (THD1) (UniProt P26039 1-405)
T1 chain: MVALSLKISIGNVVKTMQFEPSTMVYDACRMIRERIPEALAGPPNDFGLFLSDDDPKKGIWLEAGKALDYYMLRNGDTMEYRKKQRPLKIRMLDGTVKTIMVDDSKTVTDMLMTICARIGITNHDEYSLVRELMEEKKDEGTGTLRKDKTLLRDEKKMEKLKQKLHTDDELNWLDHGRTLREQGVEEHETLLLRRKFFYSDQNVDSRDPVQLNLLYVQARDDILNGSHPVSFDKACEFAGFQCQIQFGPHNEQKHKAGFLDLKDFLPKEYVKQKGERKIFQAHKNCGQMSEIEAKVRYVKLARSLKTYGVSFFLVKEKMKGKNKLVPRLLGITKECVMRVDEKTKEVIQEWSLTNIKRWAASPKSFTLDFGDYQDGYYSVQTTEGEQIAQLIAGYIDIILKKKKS

T2: talin-2 head domain (THD2) (UniProt Q71LX4 1-408)
T2 chain: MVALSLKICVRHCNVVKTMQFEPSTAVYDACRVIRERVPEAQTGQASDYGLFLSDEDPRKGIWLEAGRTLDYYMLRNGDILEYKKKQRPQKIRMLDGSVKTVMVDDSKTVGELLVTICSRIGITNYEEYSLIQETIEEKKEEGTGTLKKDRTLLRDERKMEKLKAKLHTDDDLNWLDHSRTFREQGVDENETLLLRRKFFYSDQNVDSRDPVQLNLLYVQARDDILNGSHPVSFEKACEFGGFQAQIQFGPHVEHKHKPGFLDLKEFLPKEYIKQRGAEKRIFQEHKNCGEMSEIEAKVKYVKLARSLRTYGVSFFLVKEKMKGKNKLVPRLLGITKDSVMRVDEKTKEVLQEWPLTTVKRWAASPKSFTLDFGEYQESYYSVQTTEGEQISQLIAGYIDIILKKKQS

T3: kindlin-2 (KIND2) (UniProt Q8CIB5 1-680)
T3 chain: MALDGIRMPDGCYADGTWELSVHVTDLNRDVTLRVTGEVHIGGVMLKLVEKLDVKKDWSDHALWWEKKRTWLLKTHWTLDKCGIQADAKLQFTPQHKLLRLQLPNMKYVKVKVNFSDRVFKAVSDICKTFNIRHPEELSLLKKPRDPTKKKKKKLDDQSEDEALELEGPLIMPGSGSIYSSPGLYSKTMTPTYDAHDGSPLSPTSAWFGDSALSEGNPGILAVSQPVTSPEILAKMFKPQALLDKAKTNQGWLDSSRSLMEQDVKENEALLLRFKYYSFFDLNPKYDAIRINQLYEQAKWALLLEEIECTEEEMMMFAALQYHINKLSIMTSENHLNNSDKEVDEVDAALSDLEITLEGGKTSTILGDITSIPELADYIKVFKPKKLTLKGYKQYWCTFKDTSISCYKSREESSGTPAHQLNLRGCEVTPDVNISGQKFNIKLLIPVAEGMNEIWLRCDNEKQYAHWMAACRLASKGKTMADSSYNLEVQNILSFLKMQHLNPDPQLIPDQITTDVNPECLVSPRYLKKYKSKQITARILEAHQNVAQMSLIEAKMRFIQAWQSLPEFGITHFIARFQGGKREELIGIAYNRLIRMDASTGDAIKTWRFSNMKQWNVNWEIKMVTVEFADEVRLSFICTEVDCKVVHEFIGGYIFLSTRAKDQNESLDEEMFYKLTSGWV

T4: TLN1-F3–ΔKIND2 fusion protein
T4 chain: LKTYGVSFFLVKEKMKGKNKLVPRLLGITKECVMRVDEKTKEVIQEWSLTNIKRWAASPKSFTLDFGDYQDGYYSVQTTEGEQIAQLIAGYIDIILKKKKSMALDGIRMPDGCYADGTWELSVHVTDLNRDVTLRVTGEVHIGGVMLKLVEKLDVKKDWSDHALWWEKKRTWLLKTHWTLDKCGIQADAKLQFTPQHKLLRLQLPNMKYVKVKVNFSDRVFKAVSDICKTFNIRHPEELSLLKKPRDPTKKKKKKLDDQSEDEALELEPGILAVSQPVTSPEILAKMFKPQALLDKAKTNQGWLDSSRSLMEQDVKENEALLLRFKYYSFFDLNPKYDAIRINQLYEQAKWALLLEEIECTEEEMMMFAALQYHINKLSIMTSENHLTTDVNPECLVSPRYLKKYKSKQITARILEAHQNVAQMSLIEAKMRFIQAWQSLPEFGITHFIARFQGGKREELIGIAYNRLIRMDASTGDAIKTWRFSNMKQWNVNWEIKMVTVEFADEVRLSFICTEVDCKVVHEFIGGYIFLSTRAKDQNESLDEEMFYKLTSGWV

T5: TLN1-F3–ΔKIND2^Y13A fusion protein
T5 chain: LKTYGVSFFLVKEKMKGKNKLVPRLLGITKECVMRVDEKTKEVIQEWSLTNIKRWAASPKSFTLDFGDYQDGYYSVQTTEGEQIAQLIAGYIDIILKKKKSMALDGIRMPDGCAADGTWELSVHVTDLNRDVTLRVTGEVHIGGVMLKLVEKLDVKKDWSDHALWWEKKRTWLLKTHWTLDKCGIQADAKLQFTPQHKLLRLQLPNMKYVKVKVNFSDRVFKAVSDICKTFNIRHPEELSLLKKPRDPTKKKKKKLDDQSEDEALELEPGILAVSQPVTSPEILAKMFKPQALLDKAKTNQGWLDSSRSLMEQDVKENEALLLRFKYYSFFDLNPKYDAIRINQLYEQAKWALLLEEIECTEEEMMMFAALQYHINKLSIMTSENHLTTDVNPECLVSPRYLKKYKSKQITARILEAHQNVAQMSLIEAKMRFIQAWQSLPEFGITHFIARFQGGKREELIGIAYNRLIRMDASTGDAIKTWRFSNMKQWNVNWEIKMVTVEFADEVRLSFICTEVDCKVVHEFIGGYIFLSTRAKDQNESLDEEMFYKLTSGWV

T6: kindlin-2 (KIND2) (UniProt Q8CIB5 1-680)
T6 construct: kindlin-2 (KIND2) without the deletions of ΔKIND2; In FC-RDA a copy labelled with Alexa 647 (647–KIND2) was the reporter; also called 647–KIND2; source: E. coli Rosetta, purified (IMAC, SEC); not shown: His10, N-terminal, cleaved; SUMO, N-terminal, cleaved
T6 sequence (looked up): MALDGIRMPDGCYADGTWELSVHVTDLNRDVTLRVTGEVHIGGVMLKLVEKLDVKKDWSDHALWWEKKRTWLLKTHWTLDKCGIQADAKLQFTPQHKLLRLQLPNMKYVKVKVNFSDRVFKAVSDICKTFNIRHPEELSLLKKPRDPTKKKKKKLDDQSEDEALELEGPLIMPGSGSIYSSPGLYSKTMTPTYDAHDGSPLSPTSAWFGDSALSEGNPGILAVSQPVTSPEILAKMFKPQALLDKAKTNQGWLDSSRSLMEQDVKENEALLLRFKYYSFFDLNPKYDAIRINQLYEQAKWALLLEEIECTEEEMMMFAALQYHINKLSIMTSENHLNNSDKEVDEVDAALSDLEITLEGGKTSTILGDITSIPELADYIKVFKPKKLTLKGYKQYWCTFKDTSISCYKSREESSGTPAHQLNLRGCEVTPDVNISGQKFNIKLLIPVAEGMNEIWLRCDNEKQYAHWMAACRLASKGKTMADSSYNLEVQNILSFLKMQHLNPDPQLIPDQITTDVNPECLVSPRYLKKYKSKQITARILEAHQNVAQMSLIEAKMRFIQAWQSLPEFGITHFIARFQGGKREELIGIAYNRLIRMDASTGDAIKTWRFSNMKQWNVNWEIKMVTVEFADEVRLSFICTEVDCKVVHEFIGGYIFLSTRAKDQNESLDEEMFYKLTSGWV


Assays:
[1] = biological target: T1, talin-1 head domain (THD1); assay: MST; apparent, with KIND2
[2] = biological target: T2, talin-2 head domain (THD2); assay: MST
[3] = biological target: T1, talin-1 head domain (THD1); assay: MST
kindlin-2 (KIND2) [4] = biological target: T3, kindlin-2 (KIND2); assay: MST
[5] = biological target: T4, TLN1-F3–ΔKIND2 fusion protein; assay: MST; TLN1-F3 contribution
[6] = biological target: T5, TLN1-F3–ΔKIND2^Y13A fusion protein; assay: MST; TLN1-F3 contribution
kindlin-2 (KIND2) [7] = biological target: T3, kindlin-2 (KIND2); assay: MST
kindlin-2 (KIND2) [8] = biological target: T3, kindlin-2 (KIND2); assay: MST; apparent, with THD1
kindlin-2 (KIND2) [9] = biological target: T6, kindlin-2 (KIND2); assay: NMR titration; 15N-labelled TLN1-F3 observed in the presence of β1-CT at saturating concentration (200 µM) with 75 µM KIND2 added; 298 K; settings: both partners purified
[10] = biological target: T4, TLN1-F3–ΔKIND2 fusion protein; assay: MST

| Kd [1] [µM] | Kd [2] [µM] | Kd [3] [µM] | Kd (kindlin-2 (KIND2) [4]) [µM] | Kd [5] [µM] | Kd [6] [µM] | Kd (kindlin-2 (KIND2) [7]) [µM] | Kd (kindlin-2 (KIND2) [8]) [µM] | binding result (kindlin-2 (KIND2) [9]) | Kd [10] [µM] | Binder |
| --- | --- | --- | --- | --- | --- | --- | --- | --- | --- | --- |
| 153 | 25 | 140 | 2.9 | 25.3 | 15.7 | 3 | 42 | – | – | {ATTO 488}-KLLMIIHDRREFAKFEKEKMNAKWDTGENPIYKSAVTTVVNPKYEGK [ATTO 488-labelled β1-CT (488–β1-CT)] |
| – | – | – | – | – | – | – | – | binds | – | F3 domain of TLN1 (TLN1-F3) (domain or fragment, UniProt P26039 305-405, looked up, Used unlabelled, 15N-labelled or partially deuterated in NMR; also called T1-F3; source: E. coli (DE3) Rosetta 2, purified (IMAC, SEC); not shown: His10, N-terminal, cleaved; SUMO, N-terminal, cleaved) LKTYGVSFFLVKEKMKGKNKLVPRLLGITKECVMRVDEKTKEVIQEWSLTNIKRWAASPKSFTLDFGDYQDGYYSVQTTEGEQIAQLIAGYIDIILKKKKS |
| – | – | – | 4.9 | – | – | – | – | – | 4.3 | {ATTO 488}-KLLMIIHDRREFAKFEKEKMNAKWDTGENPIAKSAVTTVVNPKYEGK [ATTO 488-labelled β1-CT^Y783A] |
